This note sets out measurements from publication PMC9638919, “DAZL regulates proliferation of human primordial germ cells by direct binding to precursor miRNAs and enhances DICER processing activity”.

The target in data set [1] is T1, GST-DAZL (UniProt Q92904 1-295).
T1 sequence: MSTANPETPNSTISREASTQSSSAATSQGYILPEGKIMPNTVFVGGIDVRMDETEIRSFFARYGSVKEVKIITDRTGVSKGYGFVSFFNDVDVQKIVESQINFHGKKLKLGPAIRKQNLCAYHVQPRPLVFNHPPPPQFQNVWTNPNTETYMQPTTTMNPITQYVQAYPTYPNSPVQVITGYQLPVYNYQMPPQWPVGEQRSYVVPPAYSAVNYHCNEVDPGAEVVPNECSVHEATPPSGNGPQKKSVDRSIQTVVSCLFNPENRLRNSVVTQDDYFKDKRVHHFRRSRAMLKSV
Nature of the data set: EMSA; 5000 nM DAZL; 10 mM HEPES pH 7.4, 50 mM KCl, 1 mM EDTA, 0.05% Triton X-100, 5% glycerol, 0.01 mg/ml BSA, 1 mM DTT; 10 nM FAM-RNA, 40 min; temperature not stated. The settings on record: protein: recombinant; tags: N-terminal GST; label: 5'-FAM; hairpin. In general terms: Mobility shift assays separate free from complexed probe on a gel.

Data set [2] concerns the target T1, GST-DAZL. Kind of data set: EMSA; 3000 nM DAZL; 10 mM HEPES pH 7.4, 50 mM KCl, 1 mM EDTA, 0.05% Triton X-100, 5% glycerol, 0.01 mg/ml BSA, 1 mM DTT; 10 nM FAM-RNA, 40 min; temperature not stated. The settings on record: protein: recombinant; tags: N-terminal GST; label: 5'-FAM; hairpin.
Data set [3] concerns the target T1, GST-DAZL. Nature of the data set: EMSA; 10 mM HEPES pH 7.4, 50 mM KCl, 1 mM EDTA, 0.05% Triton X-100, 5% glycerol, 0.01 mg/ml BSA, 1 mM DTT; 10 nM FAM-RNA, 40 min; temperature not stated. The settings on record: protein: recombinant; tags: N-terminal GST; label: 5'-FAM.
The target of data set [4] is T1, GST-DAZL. Kind of data set: EMSA; only slightly affected vs wild type; 10 mM HEPES pH 7.4, 50 mM KCl, 1 mM EDTA, 0.05% Triton X-100, 5% glycerol, 0.01 mg/ml BSA, 1 mM DTT; 10 nM FAM-RNA, 40 min; temperature not stated. To be noted: protein: recombinant; tags: N-terminal GST; label: 5'-FAM.
The target of data set [5] is T2, GST-RRM (DAZL RRM domain) (UniProt Q92904 40-115).
T2 sequence: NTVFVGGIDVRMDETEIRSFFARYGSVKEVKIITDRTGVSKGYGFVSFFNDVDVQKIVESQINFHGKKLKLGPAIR
Kind of data set: EMSA; 10 mM HEPES pH 7.4, 50 mM KCl, 1 mM EDTA, 0.05% Triton X-100, 5% glycerol, 0.01 mg/ml BSA, 1 mM DTT; 10 nM FAM-RNA, 40 min; temperature not stated. The settings on record: protein: recombinant; tags: N-terminal GST; label: 5'-FAM; hairpin.

B1: pre-let-7i (structured_RNA)
RNA: CUGGCUGAGGUAGUAGUUUGUGCUGUUGGUCGGGUUGUGACAUUGCCCGCUGUGGAGAUAACUGCGCAAGCUACUGCCUUGCUA
In the case of B1, the binding signal with GST-DAZL [1] came out at 50.9 % shifted; with GST-DAZL [2] it was 37 % shifted.

B2: pre-let-7c loop (ssRNA)
RNA: UAGAGUUACACCCUGGGAGUUAA
In the case of B2, the binding result with GST-DAZL [3] is recorded as “binds”.

B3: pre-miR-199a (structured_RNA)
RNA: GCCAACCCAGUGUUCAGACUACCUGUUCAGGAGGCUCUCAAUGUGUACAGUAGUCUGCACAUUGGUUAGGC
For B3, the binding signal with GST-DAZL [1] amounted to 22.1 % shifted; in the data set with GST-DAZL [2] it was 18.1 % shifted.

B4: pre-let-7c loop, second U to A in both GUU (ssRNA)
RNA: UAGAGAUACACCCUGGGAGAUAA
As to B4, in the data set with GST-DAZL [4], the binding result is listed as “binds”.

B5: pre-let-7c (structured_RNA)
RNA: GCAUCCGGGUUGAGGUAGUAGGUUGUAUGGUUUAGAGUUACACCCUGGGAGUUAACUGUACAACCUUCUAGCUUUCCUUGGAGC
Regarding B5, the binding signal was found to be 41.3 % shifted with GST-DAZL [1] and 37.4 % shifted with GST-DAZL [2].

B6: pre-miR-185 (structured_RNA)
RNA: AGGGGGCGAGGGAUUGGAGAGAAAGGCAGUUCCUGAUGGUCCCCUCCCCAGGGGCUGGCUUUCCUCUGGUCCUUCCCUCCCA
In the case of B6, the binding result in data set [5] is “no binding”.

B7: pre-let-7c loop, first G to A in both GUU (ssRNA)
RNA: UAGAAUUACACCCUGGGAAUUAA
With B7, in the data set with GST-DAZL [4], the binding result is “binds”.
